According to article PMC11008599:

Experiments:
[1] = molecular target: aIL2_1-K8 (G4P linker), BECN1 frameworks (bovine (knob domain)); experiment: SPR; multicycle kinetics, Biacore 8K+; knob domain constructs immobilised on a CM5 chip via amine coupling, C5 in solution; HBS-EP+ (10 mM HEPES pH 7.4, 150 mM NaCl, 3 mM EDTA, 0.005% P20); 1:1 binding model
[2] = molecular target: K8-K57, BECN1 frameworks (bovine (knob domain)); experiment: as above
[3] = molecular target: K8-K57, SNV-N frameworks (bovine (knob domain)); experiment: SPR; […], Biacore 8K+; […]; HBS-EP+ (10 mM HEPES pH 7.4, 150 mM NaCl, 3 mM EDTA, 0.005% P20); 1:1 binding model
[4] = molecular target: aIL2_1-K8 (G4P linker), SNV-N frameworks (bovine (knob domain)); experiment: as above
[5] = molecular target: aIL2_1-K8 (G4P linker), SNV-N frameworks (bovine (knob domain)); experiment: SPR; […], Biacore 8K+; […]; HBS-EP+; […]
[6] = molecular target: aIL2_1-aIL2_1, SNV-N frameworks (bovine (knob domain)); experiment: SPR; […], Biacore 8K+; […]; HBS-EP+; […]
[7] = molecular target: aIL2_1-aIL2_1-K8, SNV-N frameworks (bovine (knob domain)); experiment: SPR; […], Biacore 8K+; […]; HBS-EP+; […]
[8] = molecular target: aIL2_1-K8 (G4P linker), BECN1 frameworks (bovine (knob domain)); experiment: SPR; multicycle kinetics, Biacore 8K+; knob domain constructs immobilised on a CM5 chip via amine coupling, IL-2 in solution; HBS-EP+; two-state binding model, only the fastest association and the slowest dissociation rate constants reported
[9] = molecular target: aIL2_1-aIL2_1, BECN1 frameworks (bovine (knob domain)); experiment: as above
aIL2_1-aIL2_1, BECN1 frameworks (bovine (knob domain)), sequence (main, as listed by the source): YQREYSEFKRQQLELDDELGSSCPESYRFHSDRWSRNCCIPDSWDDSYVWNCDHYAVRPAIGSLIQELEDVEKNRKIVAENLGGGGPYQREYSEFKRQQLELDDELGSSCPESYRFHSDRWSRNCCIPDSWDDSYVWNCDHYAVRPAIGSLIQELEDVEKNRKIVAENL

[10] = molecular target: aIL2_1-aIL2_1-K8, BECN1 frameworks (bovine (knob domain)); experiment: as above
aIL2_1-aIL2_1-K8, BECN1 frameworks (bovine (knob domain)), sequence (main, as listed by the source): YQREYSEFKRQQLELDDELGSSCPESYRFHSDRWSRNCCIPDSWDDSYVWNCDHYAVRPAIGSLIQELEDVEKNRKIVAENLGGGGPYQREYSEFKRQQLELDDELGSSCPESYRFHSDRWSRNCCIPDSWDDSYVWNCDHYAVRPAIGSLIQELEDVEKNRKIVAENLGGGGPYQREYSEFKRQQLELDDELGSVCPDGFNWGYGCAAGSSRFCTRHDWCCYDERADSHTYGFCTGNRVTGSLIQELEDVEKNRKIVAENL

[11] = molecular target: bispecific/bivalent aIL2_1-aIL2_1-K8 fusion, SNV-N stalks, GGGGP linkers; experiment: SPR; bridging SPR assay: immobilised C5, binding cycles of the knob domain fusions, then a binding cycle of IL-2

aIL2_1-K8 (G4P linker), BECN1 frameworks (bovine (knob domain)), sequence (main, as listed by the source): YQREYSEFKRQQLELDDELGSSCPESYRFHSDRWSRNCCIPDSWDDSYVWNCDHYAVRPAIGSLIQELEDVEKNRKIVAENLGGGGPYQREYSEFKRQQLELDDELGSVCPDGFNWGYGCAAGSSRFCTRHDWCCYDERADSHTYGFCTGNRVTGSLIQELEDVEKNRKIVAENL
human IL-2, sequence (P60568 21-153): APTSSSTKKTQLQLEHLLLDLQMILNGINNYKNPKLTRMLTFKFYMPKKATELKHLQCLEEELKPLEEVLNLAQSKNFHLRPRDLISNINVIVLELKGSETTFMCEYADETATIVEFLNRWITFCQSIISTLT

Substance	Kd [1] [nM]	koff [1] [s⁻¹]	kon [1] [M⁻¹ s⁻¹]	Kd [2] [nM]	koff [2] [s⁻¹]	kon [2] [M⁻¹ s⁻¹]	Kd [3] [nM]	koff [3] [s⁻¹]	kon [3] [M⁻¹ s⁻¹]	Kd [4] [nM]	koff [4] [s⁻¹]	kon [4] [M⁻¹ s⁻¹]	Kd [5] [nM]	Kd [6] [nM]	Kd [7] [nM]	Kd [8] [nM]	Kd [9] [nM]	Kd [10] [nM]	increase in signal upon IL-2 binding [11] [RU]
complement component 5 (natural protein)	29	0.00026	8800	0.9	2.8e-05	31000	1.18	1.83e-05	15400	26	0.00025	9700	–	–	–	–	–	–	–
human IL-2 (from UniProt P60568 21-153) (natural protein)	–	–	–	–	–	–	–	–	–	–	–	–	9	5.7	5.5	10	7.5	7.1	26
